{"source": "patent US5624831A", "about": "“Immobilized acetylcholinesterase stabilized by a film of gelatin or albumin containing trehalose” (priority 1994, dated 1997)", "origin": "cited, not measured here", "system": "acetylcholinesterase extracted from the torpedo fish", "settings": "kept dry at 4° C. for longer than 7 days"}
{"molecule": "acetylcholinesterase extracted from the torpedo fish: acetylcholinesterase extracted from the torpedo fish (protein, UniProt P04058 22-564, looked up) Acetylcholinesterase: DDHSELLVNTKSGKVMGTRVPVLSSHISAFLGIPFAEPPVGNMRFRRPEPKKPWSGVWNASTYPNNCQQYVDEQFPGFSGSEMWNPNREMSEDCLYLNIWVPSPRPKSTTVMVWIYGGGFYSGSSTLDVYNGKYLAYTEEVVLVSLSYRVGAFGFLALHGSQEAPGNVGLLDQRMALQWVHDNIQFFGGDPKTVTIFGESAGGASVGMHILSPGSRDLFRRAILQSGSPNCPWASVSVAEGRRRAVELGRNLNCNLNSDEELIHCLREKKPQELIDVEWNVLPFDSIFRFSFVPVIDGEFFPTSLESMLNSGNFKKTQILLGVNKDEGSFFLLYGAPGFSKDSESKISREDFMSGVKLSVPHANDLGLDAVTLQYTDWMDDNNGIKNRDGLDDIVGDHNVICPLMHFVNKYTKFGNGTYLYFFNHRASNLVWPEWMGVIHGYEIEFVFGLPLVKELNYTAEEEALSRRIMHYWATFAKTGNPNEPHSQESKWPLFTTKEQKFIDLNTEPMKVHQRLRVQMCVFWNQFLPKLLNATACDGELSS", "values": [{"measurement": "loss of enzymatic activity (in words)", "value": "looses normally all its enzymatic activity"}]}
